{"source": "patent US20110269676A1", "molecular_target": "recombinant gp120 (HIV (strain not stated))", "assay": "SPR (BIAcore3000), gp120 immobilised on CM5"}
{"substance": "2D (D1D2 domain of soluble CD4) (from UniProt P01730 26-210) (receptor)", "values": [{"measurement": "Ka", "value": "4.8e+07", "unit": "M⁻¹"}, {"measurement": "Kd", "value": 21, "unit": "nM"}, {"measurement": "koff", "value": 0.00047, "unit": "s⁻¹"}, {"measurement": "kon", "value": 22000, "unit": "M⁻¹ s⁻¹"}]}
